± gives the uncertainty stated by the source.
B1: POU domain, class 3, transcription factor 1, residues 247 to 324; numbered along this chain, Q03052 (parent)
chain: EDAPSSDDLEQFAKQFKQRRIKLGFTQADVGLALGTLYGNVFSQTTICRFEALQLSFKNMCKLKPLLNKWLEETDSSS

Variants of: B1
Assay: abundance fitness (aPCA) (normalised: wild type 0, dead -1); higher = more abundant; growth selection in yeast, the domain comes from the species named
Settings: Homo sapiens

For EDAPSSDDLEQFAKQFRQRRIKLGFTQADVGLALGTLYGNVFSQTTICRFEALQLSFKNMCKLKPLLNKWLEETDSSS [K17R], which abundance fitness is on record?
Its abundance fitness is 0.007 ± 0.05.

For EDAPSSDDLFQFAKQFKQRRIKLGFTQADVGLALGTLYGNVFSQTTICRFEALQLSFKNMCKLKPLLNKWLEETDSSS [E10F], which abundance fitness is on record?
Its abundance fitness is -0.073 ± 0.11.

For EDAPSSDDHEQFAKQFKQRRIKLGFTQADVGLALGTLYGNVFSQTTICRFEALQLSFKNMCKLKPLLNKWLEETDSSS [L9H], which abundance fitness is on record?
The abundance fitness was -0.645 ± 0.31.

For EDAPSSDDLEQFAKQFKQRRIKLGFTQADVGLALGTCYGNVFSQTTICRFEALQLSFKNMCKLKPLLNKWLEETDSSS [L37C], which abundance fitness is on record?
Its abundance fitness is 0.206 ± 0.12.

Which abundance fitness does the source give for EDAPSSDDLEQFAKQFKQRRIKLGFTQADVGLALGTLYGNVFSQTTICRFEALQLSFFNMCKLKPLLNKWLEETDSSS [K58F] here?
Its abundance fitness is -0.433 ± 0.35.

Which abundance fitness does the source give for EDAPSSDDLEQFAKQFKQRRIKLGFTQADVGLALGTLYGNVFSQTTICRFEALQLSFKNMCDLKPLLNKWLEETDSSS [K62D] here?
Its abundance fitness is -0.268 ± 0.22.

For EDAPSSDDLEQFAKQFKQRRIKLGFTQADVGLALGTLYGNVFSQTTICRFEALQLSFKNMCKLKPLLNKMLEETDSSS [W70M], which abundance fitness is on record?
The abundance fitness was -0.756 ± 0.19.

For EDAPSSDDLEQFAKQFKQRRIKLTFTQADVGLALGTLYGNVFSQTTICRFEALQLSFKNMCKLKPLLNKWLEETDSSS [G24T], which abundance fitness is on record?
The abundance fitness was -0.805 ± 0.2.

Which abundance fitness does the source give for EDAPSSDDLEQFAKQFKQRRIKLGFTQADVGLALGTLYGNVFYQTTICRFEALQLSFKNMCKLKPLLNKWLEETDSSS [S43Y] here?
Its abundance fitness is -0.389 ± 0.18.

For EDAPSSDDLEQFAKQFKQRRIKLGFTQADVGLALGTLYGNVFSQTTICRFEALCLSFKNMCKLKPLLNKWLEETDSSS [Q54C], which abundance fitness is on record?
Its abundance fitness is -0.441 ± 0.15.

With EDAPSSDDLEQFAKQFKQRRIKLGFTQADVGLALGTLYGNVFSQTTICRFEALQLSFKNMCKLKPLLNKWLEETDSWS [S77W] as the variant, how does the abundance fitness read?
The abundance fitness was -0.19 ± 0.059.

With EDAPSSDDLEQFAKQFKQRRIKLGFTQADVGLALGTLYGNVFSQTTICRFEALQLSDKNMCKLKPLLNKWLEETDSSS [F57D] as the variant, how does the abundance fitness read?
The abundance fitness was -0.063 ± 0.11.

For EDAPSSDDLEQFAKQFKQRRIKLGFTQADVGLALGTLYGNVFSQTTICRFEALQLSFKNMCKLKPLQNKWLEETDSSS [L67Q], which abundance fitness is on record?
Its abundance fitness is -1.2 ± 0.3.

For EDAPSSDDLEQFAKQFKQRRIKLGFTQADVGLALGTLYGNVFSQTTICRFEALQLSCKNMCKLKPLLNKWLEETDSSS [F57C], which abundance fitness is on record?
The abundance fitness was -0.394 ± 0.14.

With EDAPSSDDLEQFAKQFKQRRIKLGFTQADVGLALGTLYGNVFSQTTICRFEALQLSFKNMCKLKPLLNKGLEETDSSS [W70G] as the variant, how does the abundance fitness read?
Its abundance fitness is -0.687 ± 0.066.

For EDAPSSDDLEQFAKQFKQRRIKLGFTQADVGLALGTLYGNVFSQTTICRFEALQLSFKNMCKLKPLLNKDLEETDSSS [W70D], which abundance fitness is on record?
The abundance fitness was -0.485 ± 0.16.

Which abundance fitness does the source give for EDAPSSDDLEQFAKQFKQRRIKLGFTQADVGLALGTLYGNVFSQTTICRFEALQLSFKNMCKLKPLLNKWLEETSSSS [D75S] here?
Its abundance fitness is 0.138 ± 0.072.

For EDAPSSDDLEQFAKQFKKRRIKLGFTQADVGLALGTLYGNVFSQTTICRFEALQLSFKNMCKLKPLLNKWLEETDSSS [Q18K], which abundance fitness is on record?
Its abundance fitness is 0.138 ± 0.087.

With EDAPSSDDLEQFAKQFKQRRIKLGFTQADVWLALGTLYGNVFSQTTICRFEALQLSFKNMCKLKPLLNKWLEETDSSS [G31W] as the variant, how does the abundance fitness read?
Its abundance fitness is -0.444 ± 0.1.

For EDAPSSDDLEQFAKQFKQRRIKLGFTQADVGLALGTLYGNVFSQTTICRFEALQLSFKNMCKLKPLLPKWLEETDSSS [N68P], which abundance fitness is on record?
The abundance fitness was -0.763 ± 0.17.

Which abundance fitness does the source give for MDAPSSDDLEQFAKQFKQRRIKLGFTQADVGLALGTLYGNVFSQTTICRFEALQLSFKNMCKLKPLLNKWLEETDSSS [E1M] here?
The abundance fitness was 0.319 ± 0.1.

Which abundance fitness does the source give for EDAPSSDDLEQFAKQFKQRRIKLGFTQAHVGLALGTLYGNVFSQTTICRFEALQLSFKNMCKLKPLLNKWLEETDSSS [D29H] here?
Its abundance fitness is -0.213 ± 0.17.

With EDAPSSDDLEQFAKQFKQRRIKLGFTQADVGLALGTLYGNVFSQTTICRFEALQLSFKNMCKLKPLLNKWLEERDSSS [T74R] as the variant, how does the abundance fitness read?
The abundance fitness was -0.009 ± 0.053.

Which abundance fitness does the source give for EDAPSSDDLEQFAKQFKQRRIKLGFTQADVGLALGTLYGNVFSQTTICRFEALQLSFKNMCKLKPLLNKWLEEEDSSS [T74E] here?
Its abundance fitness is -0.121 ± 0.087.

With EDAPSSDDLEQFAKEFKQRRIKLGFTQADVGLALGTLYGNVFSQTTICRFEALQLSFKNMCKLKPLLNKWLEETDSSS [Q15E] as the variant, how does the abundance fitness read?
The abundance fitness was -0.092 ± 0.082.

With EDAPSSDDLEQFAKQFKQRRIKLGFTQADVGLALGTSYGNVFSQTTICRFEALQLSFKNMCKLKPLLNKWLEETDSSS [L37S] as the variant, how does the abundance fitness read?
Its abundance fitness is -0.261 ± 0.1.

Which abundance fitness does the source give for EDAPSSDDLEQFAKQFKQRRIRLGFTQADVGLALGTLYGNVFSQTTICRFEALQLSFKNMCKLKPLLNKWLEETDSSS [K22R] here?
The abundance fitness was -0.035 ± 0.048.

With EDAPSSDDLEQFAKQFKQRRIKLGFTQADVGLALGTLYGNVFSQTTICRFEALQLSFKNMCKLKPLLNKWLEEIDSSS [T74I] as the variant, how does the abundance fitness read?
Its abundance fitness is -0.479 ± 0.39.

With EDAPSSDDLEQFAKQFKQRRIKLGFTQADVGLALGTLYGNVFSQTTICRFEALQLSFKNMCKLKPLLNKWLEWTDSSS [E73W] as the variant, how does the abundance fitness read?
Its abundance fitness is -0.137 ± 0.054.

Which abundance fitness does the source give for EDAPSSDDLEQFAKQFKQRRIKLGFTGADVGLALGTLYGNVFSQTTICRFEALQLSFKNMCKLKPLLNKWLEETDSSS [Q27G] here?
Its abundance fitness is -0.595 ± 0.082.

Which abundance fitness does the source give for EDAPSSDDLEQFAKQFKQRRIKLGFTQADVGLALTTLYGNVFSQTTICRFEALQLSFKNMCKLKPLLNKWLEETDSSS [G35T] here?
The abundance fitness was 0.236 ± 0.085.

Which abundance fitness does the source give for EDAPSSDDLEQFAKQFKQRRIKLGFTQADVGCALGTLYGNVFSQTTICRFEALQLSFKNMCKLKPLLNKWLEETDSSS [L32C] here?
The abundance fitness was 0.095 ± 0.1.

With EDAPSSDDLEQFAKQFKQRRIKLGFTQADVGLALGTLYGNVFSQTIICRFEALQLSFKNMCKLKPLLNKWLEETDSSS [T46I] as the variant, how does the abundance fitness read?
Its abundance fitness is -0.121 ± 0.19.

Which abundance fitness does the source give for EDAPSSDDLEQFAKQFKQRRIKLGFTQEDVGLALGTLYGNVFSQTTICRFEALQLSFKNMCKLKPLLNKWLEETDSSS [A28E] here?
Its abundance fitness is -0.008 ± 0.064.

With EDAPSSDDLEQFAKQFKQRRIKLGFTQADVGLALGTLYGNVFSQTTICRFEALQLSFKNMCKLKPLLNKWLEETDSNS [S77N] as the variant, how does the abundance fitness read?
Its abundance fitness is -0.141 ± 0.11.
